Test results: paper doi:10.1101/2020.04.16.045526

Molecular target: T1, HapR (Vibrio cholerae E7946 (El Tor)) (UniProt Q4F6W7)
T1 sequence: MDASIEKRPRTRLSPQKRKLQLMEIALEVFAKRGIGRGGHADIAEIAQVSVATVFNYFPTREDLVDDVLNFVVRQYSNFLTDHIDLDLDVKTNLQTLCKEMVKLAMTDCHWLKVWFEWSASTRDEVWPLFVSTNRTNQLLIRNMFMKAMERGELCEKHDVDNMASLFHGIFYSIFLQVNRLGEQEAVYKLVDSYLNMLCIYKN
Assay: EMSA
Details: 1-2 internal Cy5-dCTP incorporated by PCR

Sequence: TAAGCAAACTGTAGCGTAGAAGGTTGACGAAACAAGCAATCATCTGCTAACAATGGTCCGTGTGATACCCATCATCCGGGCCATTTATTTTAGGGATATAAGACTATGAGCTACCAAGAAAAAAATGCA (double strand) [PclpP promoter probe]
- binding: no binding
